The source of these data is US20060257938A1, “Method of screening for drugs that block ligand binding to a lipid binding protein” (priority 2005, published 2006).

Common to all, as to type: binding
A short description of test [1]: Probe fluorescence ratio response to arachidonic acid relative to ADIFAB2. As to conditions: arachidonic acid; response relative to ADIFAB2. A digest of the protocol:
(§1)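 Each fatty acid's response was expressed relative to ADIFAB2, the rI-FABP-L72A probe, as ΔR/ΔRreference. ΔR is the change in the background-corrected two-wavelength intensity ratio R=Fλ1/Fλ2 from its analyte-free baseline R0. Emission was read near about 420-480 nm for unbound and about 495-580 nm for FFA-bound probe.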

Test [2] can be described thus: Probe fluorescence ratio response to linoleic acid relative to ADIFAB2. As to conditions: response relative to ADIFAB2. A digest of the protocol:
as §1

A short description of test [3]: Probe fluorescence ratio response to oleic acid relative to ADIFAB2. The note with it: response relative to ADIFAB2. A digest of the protocol:
as §1

A short description of test [4]: Probe fluorescence ratio response to linolenic acid relative to ADIFAB2. As to conditions: response relative to ADIFAB2. A digest of the protocol: as §1
Test [5] in a line: Probe fluorescence ratio response to palmitic acid relative to ADIFAB2. As to conditions: response relative to ADIFAB2. The method, boiled down:
as §1

Values joined by “and” are separate entries in the source; they are usually repeats but may differ in a detail not shown here. Equal entries are not always repeated.

B1: 106Q, 72A (protein, listed as Rattus norvegicus)
chain: AFDGTWKVDRNENYEKFMEKMGINVVKRKLGAHDNLKLTITQEGNKFTVKESSNFRNIDVVFELGVDFAYSAADGTELTGTWTMEGNKLVGKFKRVDNGKELIAVQEISGNELIQTYTYEGVEAKRIFKKE
modifications: PEPTIDE (1)...(131) wild-type rat intestinal fatty acid binding protein
As to B1, in test [1], the “DR/DR AA” value is recorded as 0.37. Further, the “DR/DR LA” value in test [2] is recorded as 0.36. Moreover, the “DR/DR OA” value in test [3] amounted to 0.39. Moreover, the “DR/DR LNA” value in test [4] was 0.38. In test [5], the “DR/DR PA” value is 0.18.

B2: 115A1, 72A (protein, listed as Rattus norvegicus)
chain: AFDGTWKVDRNENYEKFMEKMGINVVKRKLGAHDNLKLTITQEGNKFTVKESSNFRNIDVVFELGVDFAYSAADGTELTGTWTMEGNKLVGKFKRVDNGKELIAVREISGNELIATYTYEGVEAKRIFKKE
modifications: PEPTIDE (1)...(131) wild-type rat intestinal fatty acid binding protein
For B2, the “DR/DR AA” value in test [1] turned out to be 1.17. In addition, the “DR/DR LA” value in test [2] came out at 1.22. Moreover, in test [3], the “DR/DR OA” value is recorded as 1.20. Moreover, in test [4], the “DR/DR LNA” value was found to be 1.26. The “DR/DR PA” value in test [5] amounted to 1.11.

B3: 106V1, 72A (protein, listed as Rattus norvegicus)
chain: AFDGTWKVDRNENYEKFMEKMGINVVKRKLGAHDNLKLTITQEGNKFTVKESSNFRNIDVVFELGVDFAYSAADGTELTGTWTMEGNKLVGKFKRVDNGKELIAVVEISGNELIQTYTYEGVEAKRIFKKE
modifications: PEPTIDE (1)...(131) wild-type rat intestinal fatty acid binding protein
Regarding B3, in test [1], the “DR/DR AA” value was found to be 0.61. Further, in test [2], the “DR/DR LA” value is on record as 0.82. In addition, the “DR/DR OA” value in test [3] turned out to be 0.84. In addition, the “DR/DR LNA” value in test [4] was determined as 0.82. The “DR/DR PA” value in test [5] came out at 0.32.

B4: 115I3, 72A (protein, listed as Rattus norvegicus)
chain: AFDGTWKVDRNENYEKFMEKMGINVVKRKLGAHDNLKLTITQEGNKFTVKESSNFRNIDVVFELGVDFAYSAADGTELTGTWTMEGNKLVGKFKRVDNGKELIAVREISGNELIITYTYEGVEAKRIFKKE
modifications: PEPTIDE (1)...(131) wild-type rat intestinal fatty acid binding protein
For the molecule B4, the “DR/DR AA” value in test [1] came out at 0.87. The “DR/DR LA” value in test [2] came out at 0.81. The “DR/DR OA” value in test [3] came out at 0.88. In test [4], the “DR/DR LNA” value turned out to be 0.80. The “DR/DR PA” value in test [5] was 0.84.

B5: 115F1, 72A (protein, listed as Rattus norvegicus)
chain: AFDGTWKVDRNENYEKFMEKMGINVVKRKLGAHDNLKLTITQEGNKFTVKESSNFRNIDVVFELGVDFAYSAADGTELTGTWTMEGNKLVGKFKRVDNGKELIAVREISGNELIFTYTYEGVEAKRIFKKE
modifications: PEPTIDE (1)...(131) wild-type rat intestinal fatty acid binding protein
With B5, in test [1], the “DR/DR AA” value stood at 1.36. The “DR/DR LA” value in test [2] stood at 1.46. The “DR/DR OA” value in test [3] is 1.41. In test [4], the “DR/DR LNA” value turned out to be 1.49. In test [5], the “DR/DR PA” value worked out at 0.77.

B6: 115H1, 72A (protein, listed as Rattus norvegicus)
chain: AFDGTWKVDRNENYEKFMEKMGINVVKRKLGAHDNLKLTITQEGNKFTVKESSNFRNIDVVFELGVDFAYSAADGTELTGTWTMEGNKLVGKFKRVDNGKELIAVREISGNELIHTYTYEGVEAKRIFKKE
modifications: PEPTIDE (1)...(131) wild-type rat intestinal fatty acid binding protein
B6: in test [1], the “DR/DR AA” value is given as 0.89. Further, the “DR/DR LA” value in test [2] came to 0.74. Moreover, in test [3], the “DR/DR OA” value turned out to be 0.68. For the same molecule, the “DR/DR LNA” value in test [4] amounted to 0.70. For the same molecule, in test [5], the “DR/DR PA” value was 0.51.

B7: 106W, 72A (protein, listed as Rattus norvegicus)
chain: AFDGTWKVDRNENYEKFMEKMGINVVKRKLGAHDNLKLTITQEGNKFTVKESSNFRNIDVVFELGVDFAYSAADGTELTGTWTMEGNKLVGKFKRVDNGKELIAVWEISGNELIQTYTYEGVEAKRIFKKE
modifications: PEPTIDE (1)...(131) wild-type rat intestinal fatty acid binding protein
As to B7, in test [1], the “DR/DR AA” value was 1.11 and 1.106. Besides, in test [2], the “DR/DR LA” value is 1.04 and 1.042. The “DR/DR OA” value in test [3] is 0.99 and 0.991. In addition, the “DR/DR LNA” value in test [4] is listed as 1.03. The “DR/DR PA” value in test [5] was 0.41 and 0.407.

B8: 113M, 72A (protein, listed as Rattus norvegicus)
chain: AFDGTWKVDRNENYEKFMEKMGINVVKRKLGAHDNLKLTITQEGNKFTVKESSNFRNIDVVFELGVDFAYSAADGTELTGTWTMEGNKLVGKFKRVDNGKELIAVREISGNEMIQTYTYEGVEAKRIFKKE
modifications: PEPTIDE (1)...(131) wild-type rat intestinal fatty acid binding protein
With B8, the “DR/DR AA” value in test [1] was 1.33. Also, in test [2], the “DR/DR LA” value was found to be 1.46. Moreover, the “DR/DR OA” value in test [3] is given as 1.42. Besides, the “DR/DR LNA” value in test [4] came to 1.38. The “DR/DR PA” value in test [5] worked out at 1.19.

B9: 115K3, 72A (protein, listed as Rattus norvegicus)
chain: AFDGTWKVDRNENYEKFMEKMGINVVKRKLGAHDNLKLTITQEGNKFTVKESSNFRNIDVVFELGVDFAYSAADGTELTGTWTMEGNKLVGKFKRVDNGKELIAVREISGNELIKTYTYEGVEAKRIFKKE
modifications: PEPTIDE (1)...(131) wild-type rat intestinal fatty acid binding protein
Consider B9, for which the “DR/DR AA” value in test [1] is 1.26. Moreover, the “DR/DR LA” value in test [2] amounted to 1.23. Moreover, in test [3], the “DR/DR OA” value was found to be 1.25. Moreover, the “DR/DR LNA” value in test [4] turned out to be 1.32. Moreover, the “DR/DR PA” value in test [5] is 1.18.

B10: 115E1, 72A (protein, listed as Rattus norvegicus)
chain: AFDGTWKVDRNENYEKFMEKMGINVVKRKLGAHDNLKLTITQEGNKFTVKESSNFRNIDVVFELGVDFAYSAADGTELTGTWTMEGNKLVGKFKRVDNGKELIAVREISGNELIETYTYEGVEAKRIFKKE
modifications: PEPTIDE (1)...(131) wild-type rat intestinal fatty acid binding protein
B10: the “DR/DR AA” value in test [1] is recorded as 0.12. In addition, the “DR/DR LA” value in test [2] came out at 0.15. Further, in test [3], the “DR/DR OA” value is 0.10. The “DR/DR LNA” value in test [4] was 0.10. In test [5], the “DR/DR PA” value came to 0.08.

B11: 106S2, 72A (protein, listed as Rattus norvegicus)
chain: AFDGTWKVDRNENYEKFMEKMGINVVKRKLGAHDNLKLTITQEGNKFTVKESSNFRNIDVVFELGVDFAYSAADGTELTGTWTMEGNKLVGKFKRVDNGKELIAVSEISGNELIQTYTYEGVEAKRIFKKE
modifications: PEPTIDE (1)...(131) wild-type rat intestinal fatty acid binding protein
Take B11: the “DR/DR AA” value in test [1] came out at 0.32. Moreover, the “DR/DR LA” value in test [2] turned out to be 0.36. Moreover, in test [3], the “DR/DR OA” value was 0.48. In addition, the “DR/DR LNA” value in test [4] worked out at 0.40. Also, the “DR/DR PA” value in test [5] was determined as 0.15.

B12: 106T2, 72A (protein, listed as Rattus norvegicus)
chain: AFDGTWKVDRNENYEKFMEKMGINVVKRKLGAHDNLKLTITQEGNKFTVKESSNFRNIDVVFELGVDFAYSAADGTELTGTWTMEGNKLVGKFKRVDNGKELIAVTEISGNELIQTYTYEGVEAKRIFKKE
modifications: PEPTIDE (1)...(131) wild-type rat intestinal fatty acid binding protein
B12: the “DR/DR AA” value in test [1] came out at 0.43. Moreover, in test [2], the “DR/DR LA” value worked out at 0.47. In addition, in test [3], the “DR/DR OA” value turned out to be 0.53. The “DR/DR LNA” value in test [4] turned out to be 0.58. Further, the “DR/DR PA” value in test [5] was 0.23.

B13: 106Y1, 72A (protein, listed as Rattus norvegicus)
chain: AFDGTWKVDRNENYEKFMEKMGINVVKRKLGAHDNLKLTITQEGNKFTVKESSNFRNIDVVFELGVDFAYSAADGTELTGTWTMEGNKLVGKFKRVDNGKELIAVYEISGNELIQTYTYEGVEAKRIFKKE
modifications: PEPTIDE (1)...(131) wild-type rat intestinal fatty acid binding protein
As for B13, the “DR/DR AA” value in test [1] amounted to 0.57. In addition, the “DR/DR LA” value in test [2] was 0.61. Moreover, in test [3], the “DR/DR OA” value turned out to be 0.60. In addition, in test [4], the “DR/DR LNA” value came to 0.60. Also, the “DR/DR PA” value in test [5] is reported as 0.27.

B14: 115D1, 72A (protein, listed as Rattus norvegicus)
chain: AFDGTWKVDRNENYEKFMEKMGINVVKRKLGAHDNLKLTITQEGNKFTVKESSNFRNIDVVFELGVDFAYSAADGTELTGTWTMEGNKLVGKFKRVDNGKELIAVREISGNELIDTYTYEGVEAKRIFKKE
modifications: PEPTIDE (1)...(131) wild-type rat intestinal fatty acid binding protein
B14: in test [1], the “DR/DR AA” value is recorded as 1.17. Further, in test [2], the “DR/DR LA” value stood at 1.19. In addition, in test [3], the “DR/DR OA” value was 1.21. Moreover, the “DR/DR LNA” value in test [4] was found to be 1.20. Also, the “DR/DR PA” value in test [5] worked out at 1.14.

B15: 102A, 72A (protein, listed as Rattus norvegicus)
chain: AFDGTWKVDRNENYEKFMEKMGINVVKRKLGAHDNLKLTITQEGNKFTVKESSNFRNIDVVFELGVDFAYSAADGTELTGTWTMEGNKLVGKFKRVDNGKEAIAVREISGNELIQTYTYEGVEAKRIFKKE
modifications: PEPTIDE (1)...(131) wild-type rat intestinal fatty acid binding protein
In the case of B15, the “DR/DR AA” value in test [1] amounted to 0.45. Also, the “DR/DR LA” value in test [2] came to 0.35. The “DR/DR OA” value in test [3] stood at 0.52. The “DR/DR LNA” value in test [4] was 0.44. The “DR/DR PA” value in test [5] is 0.20.
